This data set in a line: soluble on expression in E. coli; label from the status in PepcDB or PDB records.
In the case of “MGHHHHHHSHMPSCVVNPMEHTHAATAALPAAGPVNLPTGISRVPTGYPSDLKPVTWNQHQLAHLQQMCSEASGTPAPGLTGKHAAGRELAGPGFVGKAPAYPQELCLAQSFHLKPPLEKPTPSPPVNGMAAPLAYPNGHYFQPLWNNILPTPNSDSSGSQDLAMPFHGGQPTGAPLDCAAAPGAHYRAGTGGGPVASQNSLMQTVDYLSGDFQQACFREQSLAMLSKAHRAPGNRAPDPTESRSLHIQHPGYR”, the “soluble on expression in E. coli” value was “not soluble”. Next, “MDKVYLTWWQVDRAIFALAEKLREYKPDVIIGVARGGLIPAVRLSHILGDIPLKVIDVKFYKGIDERGEKPVITIPIHGDLKDKRVVIVDDVSDTGKTLEVVIEEVKKLGAKEIKIACLAMKPWTSVVPDYYVFRTEKWIVFPWEEFPVIEKE”: “soluble”; “MRGSHHHHHHGSVEVQVLIENVVFARNFVAEHGLSLLLKKGNKEIVVDTGQSENFIKNCGLMGIDVGRIKKVVLTHGHYDHIGGLKGLLERNPEVKIYTHKEILNKKYAMRKGGQFEEIGFDLSFYEKYKNNFVLIDKDAEIEEGFYVITNTDITYDNEFTTKNFFVEKEGKRIPDKFLDEVFVVVKEEDGINVVTGCSHAGILNILETARNRFGVSYIKSLIGGFHLRGMEEEKVKDIARKIEEYGVKKVLTGHCTGIDEYGFLKSVLKDKISYLTTSSSIVV”: “soluble”; “MNKAAQKVLKLLGHTEIARVNSSCGAEQEYFLVDSNFAHQRPDLLLAGRTLFGKSPAKGQEFDDHYFGAIPERVQIFMQDVEAQLYKLGIPAKTRHNEVAPGQFEIAPVFEAANVASDHQQLIMTTLKTTAKKHGFMCLLHEKPFAGINGSGKHVNWSVGNATQGNLLDPGDSPHDNAQFLVFCGAVIRGVHKFGPLMRAVIANASNDHRLGANEAPPAIMSVYLGSQLEEVFEQIKNGTVSESKKKGVMDLGVAVLPELTKDAGDRNRTSPFAFTGNRFEFRAVGSSQSVSGPLVALNTILADSLGWIGDRLESELAKGLEISEAILTVLKEIMNDHGSVIFGGNGYSEEWHREAVQERGLRNLPTTADALPVLKEDEVVALFDQLKVLTPIELESRFEVYAEQYIKSIEV”: “not soluble”. For “MEEVGGNGGPARIAECGKIGSGTINSNVVPSVNLPSPSVKPSVTPSVKKPPHVIRSDYSKPREKPAKVAKKPTVKNDKKPKPVAIVAPTGIIKTFKTTPNPNRNL” the value was “soluble”. In the case of “MNATPEKADDLIVVGKIFSVHGVRGEVKVYSFTDPIENLLDYPRWTLRHEGKVKQVELVSGRGSQKGLVVKLKGLDDRDEARLLSGYEICIPRSLLPNLAADEYYWYQLVGLKVINQDEQLFGKVDHLLETGANDVMVVKPCAGSLDDRERLLPYTEQCVLAIDLEAGVMRVEWDADFLEHHHHHH”, the “soluble on expression in E. coli” value was “soluble”. Consider “MGKRFSSFQAAQIRIARPTGQLDEIIRFYEEGLCLKRIGEFSQHNGYDGVMFGLPHADYHLEFTQYEGGSTAPVPHPDSLLVFYVPNAVELAAITSKLKHMGYQEVESENPYWSNGGVTIEDPDGWRIVFMNSKGISGK”, for which the “soluble on expression in E. coli” value was “soluble”. In the case of “MKLDKIDNKNRRIRKKLFLGEFAILGFEISCETDINDFDRYDAFVDDFIDYIDTLGLCFGGGGLELFEGFLCSTERYGSATEEQKAQVVAWLEARPEVKSAKAGDLLDANYL”, the “soluble on expression in E. coli” value was “soluble”.

Regarding “MSLGTPSEPTSTLESDIFDDLSLYYLEDVFLSATTPSPTFDLSDPSDPSLSDSFDSEWSPMTPCSIERPETSTSSIFSFEARPIKTPPPAEYLRLPTFLSTNNSGFFDSVVASDFNLYGKFNDWLNDSKPRSGSFAIESAEELARNPRETRSEPEVPSLFKRREYGCGYCRSVGYMRWETHTRKKCDKLSSLAPCKICGARGEMNHTETYCPMKPSSQLFFNEDFSRDFENRRFQRSRYQFYKHSSLIQKIYASSEDSF”, the “soluble on expression in E. coli” value is recorded as “not soluble”.

With “GPGSMAAMASRALISSPSHLLQKFDSCRTIFMCCDIQEKLRNRIPNFQAAVDVSNSMATIHNTLTPKHSTFVVTEQYPKGVGHVAKDITLPEGTPVIEKLQPSMLVPEMMPYIDGDAARGILPVQQAVLWGHETHVCVLQTADELLSRNIRVAVLVDGCASQQQLDHDVAIQEMAGWENLTLTTTISVLLQLSRGDRWIRGALMKVVKPKWADPSRFPSLPADGERPKA”, the “soluble on expression in E. coli” value was “soluble”.

(Values after the DeepSol protein solubility set.)
